The source of these data is patent US20240229003A1.

For this assay, the target named is LGR6 (UniProt Q9HBX8). Briefly: cell-based or functional assay.
Sequence of UniProt Q9HBX8 (Q9HBX8 25-967): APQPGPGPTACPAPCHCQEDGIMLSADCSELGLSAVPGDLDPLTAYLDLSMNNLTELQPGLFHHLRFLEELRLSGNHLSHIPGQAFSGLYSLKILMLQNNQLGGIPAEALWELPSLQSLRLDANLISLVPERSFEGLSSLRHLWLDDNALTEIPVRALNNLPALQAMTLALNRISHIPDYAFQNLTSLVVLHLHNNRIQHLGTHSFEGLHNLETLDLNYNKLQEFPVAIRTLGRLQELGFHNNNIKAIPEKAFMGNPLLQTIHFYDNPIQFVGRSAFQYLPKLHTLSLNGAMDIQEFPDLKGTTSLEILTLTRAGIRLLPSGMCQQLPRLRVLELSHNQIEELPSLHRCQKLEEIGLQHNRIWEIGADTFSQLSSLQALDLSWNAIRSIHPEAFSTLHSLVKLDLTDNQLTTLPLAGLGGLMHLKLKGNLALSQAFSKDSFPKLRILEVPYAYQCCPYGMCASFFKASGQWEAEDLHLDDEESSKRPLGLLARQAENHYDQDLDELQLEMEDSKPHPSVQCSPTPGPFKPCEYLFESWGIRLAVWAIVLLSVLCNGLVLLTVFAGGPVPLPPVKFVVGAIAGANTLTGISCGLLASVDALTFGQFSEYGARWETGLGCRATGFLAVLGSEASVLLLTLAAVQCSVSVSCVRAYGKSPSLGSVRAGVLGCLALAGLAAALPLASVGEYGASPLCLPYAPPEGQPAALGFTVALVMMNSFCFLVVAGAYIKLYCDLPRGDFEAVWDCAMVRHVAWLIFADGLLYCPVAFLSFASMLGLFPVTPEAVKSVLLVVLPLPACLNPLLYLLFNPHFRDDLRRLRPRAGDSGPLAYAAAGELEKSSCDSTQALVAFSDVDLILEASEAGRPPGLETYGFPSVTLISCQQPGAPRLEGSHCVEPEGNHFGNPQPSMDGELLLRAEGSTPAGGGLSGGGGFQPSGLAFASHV

Turning to “MBP-RSPO1-MMAE (from UniProt Q2MKA7 21-145)”, the IC50 of cell killing on LGR6-overexpressing HEK-LGR6-2 cells (10 days exposure, CCK-8 viability) was found to be 0.08 nM and the fold potency of killing, HEK-LGR6-2 cells against empty vector-transfected HEK-pcDNA cells was found to be 12 fold.
